Laboratory results as given in IntAct's records for PubMed 18725399.

B1: U3 small nucleolar RNA-associated protein 6 (Saccharomyces cerevisiae), Q02354 (parent)
chain: MSKTRYYLEQCIPEMDDLVEKGLFTKNEVSLIMKKRTDFEHRLNSRGSSINDYIKYINYESNVNKLRAKRCKRILQVKKTNSLSDWSIQQRIGFIYQRGTNKFPQDLKFWAMYLNYMKARGNQTSYKKIHNIYNQLLKLHPTNVDIWISCAKYEYEVHANFKSCRNIFQNGLRFNPDVPKLWYEYVKFELNFITKLINRRKVMGLINEREQELDMQNEQKNNQAPDEEKSHLQVPSTGDSMKDKLNELPEADISVLGNAETNPALRGDIALTIFDVCMKTLGKHYINKHKGYYAISDSKMNIELNKETLNYLFSESLRYIKLFDEFLDLERDYLINHVLQFWKNDMYDLSLRKDLPELYLKTVMIDITLNIRYMPVEKLDIDQLQLSVKKYFAYISKLDSASVKSLKNEYRSYLQDNYLKKMNAEDDPRYKILDLIISKL
partner: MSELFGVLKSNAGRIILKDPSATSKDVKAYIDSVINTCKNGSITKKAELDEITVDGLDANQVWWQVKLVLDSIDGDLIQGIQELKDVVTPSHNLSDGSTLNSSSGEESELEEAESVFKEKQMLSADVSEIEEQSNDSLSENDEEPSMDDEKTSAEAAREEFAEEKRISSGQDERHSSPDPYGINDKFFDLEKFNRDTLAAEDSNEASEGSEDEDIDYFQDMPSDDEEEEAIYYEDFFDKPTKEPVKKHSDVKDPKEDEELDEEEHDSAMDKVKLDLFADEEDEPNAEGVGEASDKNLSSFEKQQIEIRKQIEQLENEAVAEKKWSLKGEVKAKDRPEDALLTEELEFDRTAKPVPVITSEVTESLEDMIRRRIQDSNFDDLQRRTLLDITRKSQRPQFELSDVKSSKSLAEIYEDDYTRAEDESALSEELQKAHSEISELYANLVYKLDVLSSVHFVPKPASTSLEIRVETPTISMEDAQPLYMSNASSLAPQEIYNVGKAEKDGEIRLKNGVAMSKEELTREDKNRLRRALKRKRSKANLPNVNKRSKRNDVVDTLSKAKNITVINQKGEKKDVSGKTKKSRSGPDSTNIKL
B2: U3 small nucleolar RNA-associated protein 6 (Saccharomyces cerevisiae), Q02354 (parent)
chain: B1 chain
partner: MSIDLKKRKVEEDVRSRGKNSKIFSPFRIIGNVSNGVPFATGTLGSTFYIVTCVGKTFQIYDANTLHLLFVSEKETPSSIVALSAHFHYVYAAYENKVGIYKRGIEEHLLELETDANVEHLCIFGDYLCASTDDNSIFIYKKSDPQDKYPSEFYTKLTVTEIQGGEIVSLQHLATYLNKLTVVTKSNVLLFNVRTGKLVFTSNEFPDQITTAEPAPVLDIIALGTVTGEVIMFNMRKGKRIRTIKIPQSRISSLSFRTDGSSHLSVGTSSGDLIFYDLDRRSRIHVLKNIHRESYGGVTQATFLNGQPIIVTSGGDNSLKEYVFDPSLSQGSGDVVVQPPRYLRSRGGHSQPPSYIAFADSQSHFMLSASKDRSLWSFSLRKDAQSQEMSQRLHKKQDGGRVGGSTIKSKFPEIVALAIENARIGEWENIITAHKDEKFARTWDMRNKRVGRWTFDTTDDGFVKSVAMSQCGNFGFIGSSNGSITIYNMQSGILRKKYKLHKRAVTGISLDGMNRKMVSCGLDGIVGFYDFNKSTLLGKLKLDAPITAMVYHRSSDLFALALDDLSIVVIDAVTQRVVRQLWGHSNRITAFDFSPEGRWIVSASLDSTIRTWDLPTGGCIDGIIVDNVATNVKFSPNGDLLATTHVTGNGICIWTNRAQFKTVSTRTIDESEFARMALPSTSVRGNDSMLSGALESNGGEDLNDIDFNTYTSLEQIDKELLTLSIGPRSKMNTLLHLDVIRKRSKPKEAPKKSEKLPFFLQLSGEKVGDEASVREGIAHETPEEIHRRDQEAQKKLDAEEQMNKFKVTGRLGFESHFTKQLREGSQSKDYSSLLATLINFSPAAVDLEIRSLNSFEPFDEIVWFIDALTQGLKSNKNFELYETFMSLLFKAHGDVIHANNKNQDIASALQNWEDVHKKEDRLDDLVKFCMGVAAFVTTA

Variants of: B1
Conditions: with mpp10_yeast MPP10, P47083

Row | effect of a mutation on the interaction | Variant
1 | decreasing interaction | MSKTRYYLEQCIPEMDDLVEKGLFTKNEVSLIMKKRTDFEHRLNSRGSSINDYIKYINYESNVNKLRAKRCKRILQVKKTNSLSDWSIQQRIGFIYQRETNKFPQDLKFWAMYLNYMKARGNQTSYKKIHNIYNQLLKLHPTNVDIWISCAKYEYEVHANFKSCRNIFQNGLRFNPDVPKLWYEYVKFELNFITKLINRRKVMGLINEREQELDMQNEQKNNQAPDEEKSHLQVPSTGDSMKDKLNELPEADISVLGNAETNPALRGDIALTIFDVCMKTLGKHYINKHKGYYAISDSKMNIELNKETLNYLFSESLRYIKLFDEFLDLERDYLINHVLQFWKNDMYDLSLRKDLPELYLKTVMIDITLNIRYMPVEKLDIDQLQLSVKKYFAYISKLDSASVKSLKNEYRSYLQDNYLKKMNAEDDPRYKILDLIISKL [G99E]

Variants of: B2
Conditions: with utp21_yeast UTP21, Q06078

Row | effect of a mutation on the interaction | Variant
2 | disrupting interaction | MSKTRYYLEQCIPEMDDLVEKGLFTKNEVSLIMKKRTDFEHRLNSRGSSINDYIKYINYESNVNKLRAKRCKRILQVKKTNSLSDWSIQQRIGFIYQRETNKFPQDLKFWAMYLNYMKARGNQTSYKKIHNIYNQLLKLHPTNVDIWISCAKYEYEVHANFKSCRNIFQNGLRFNPDVPKLWYEYVKFELNFITKLINRRKVMGLINEREQELDMQNEQKNNQAPDEEKSHLQVPSTGDSMKDKLNELPEADISVLGNAETNPALRGDIALTIFDVCMKTLGKHYINKHKGYYAISDSKMNIELNKETLNYLFSESLRYIKLFDEFLDLERDYLINHVLQFWKNDMYDLSLRKDLPELYLKTVMIDITLNIRYMPVEKLDIDQLQLSVKKYFAYISKLDSASVKSLKNEYRSYLQDNYLKKMNAEDDPRYKILDLIISKL [G99E]
